Source: patent US20110280881A1, “NOVEL ANTI-HSP90 MONOCLONAL ANTIBODY” (RIKEN, priority 2010, published 2011)

B1: 6H8: anti-HSP90 monoclonal antibody produced by hybridoma FERM BP-11222; epitope … (antibody)
VH: QVQLQQSGPELVKPGASVRISCKASGYTFTSYYIHWVKQRPGQGLEWIGWIYPGNVNTKYNEKFKGKATLTADKSSSTAYMQLSSLTSEDSAVYFCARYGNYPFAYWGQGTLVTVSAAKTTAPSVYPLAPVCGDTTGSSVTLGCLVKGYF
VL: DVVMTQTPLSLPVSLGDQASISCRSSQSLVHSNGNTYLHWYLQKPGQSPKLLIYKVSNRFSGVPDRFSGSGSGTDFTLKISRVEAEDLGVYFCSQSTHVPPTFGGGTKLEIKRADAAPTVSIFPPSSEQLTSGGASVVCFLNNFYPKDINVKWKIDGS
B2: 6H8-OVA: high molecular weight conjugate of the 6H8 antibody and maleimide-activated OVA (conjugate)
VH: B1 VH
VL: B1 VL
chain: GSIGAASMEFCFDVFKELKVHHANENIFYCPIAIMSALAMVYLGAKDSTRTQINKVVRFDKLPGFGDSIEAQCGTSVNVHSSLRDILNQITKPNDVYSFSLASRLYAEERYPILPEYLQCVKELYRGGLEPINFQTAADQARELINSWVESQTNGIIRNVLQPSSVDSQTAMVLVNAIVFKGLWEKAFKDEDTQAMPFRVTEQESKPVQMMYQIGLFRVASMASEKMKILELPFASGTMSMLVLLPDEVSGLEQLESIINFEKLTEWTSSNVMEERKIKVYLPRMKMEEKYNLTSVLMAMGITDVFSSSANLSGISSAESLKISQAVHAAHAEINEAGREVVGSAEAGVDAASVSEEFRADHPFLFCIKHIATNAVLFFGRCVSP

Key:
cell surface HSP90 = experiment: FACS staining of antigen-presenting cells with the 6H8 antibody; assay type: binding; conditions: DC2.4, mouse BMDC, human immature and mature DC, mouse peritoneal macrophages, J774
Method: (1) 1.1 mg of the biotinylation reagent EZ-Link (registered trademark) Sulfo-NHS-Biotin (21217, Takara Bio Inc.) was dissolved in 250 μl of pure water (concentration 10 mM). 2 of the solution of the biotinylation reagent was added to 100 of an antibody protein (1 mg/ml), and the reaction was allowed to proceed while cooling on ice for 2 hours. After the reaction, the unreacted biotin reagent was removed using Centricon[5k] (Millipore). The reaction product was adjusted to a final concentration of 1 mg/ml and stored at 4° C. (2) DC2.4 not subjected to membrane permeabilization (1×10^6 cells/0.1 ml), along with the biotinylated anti-HSP90 antibody (1 μg/ml), was incubated at 4° C. for 30 minutes. For negative control, DC2.4 was likewise incubated in an antibody-free PBS. (3) After the unreacted antibody was removed, DC2.4 (1×10^6 cells/0.1 ml), along with PE-cy5 streptavidin (eBioscience, 15-4317-82, used at a concentration of 0.5 μg/ml), was incubated at 4° C. for 30 minutes. (4) After the unreacted PE-cy5 streptavidin was removed, the cells were analyzed by FACS (Becton Dickinson). […]

OT-I CD8+ T cells = experiment: In vitro cross-presentation assay with BMDC of normal and FcRγ KO mouse; assay type: cell-based; conditions: BMDC pulsed 3 hours, co-culture with OT-I CD8+ T cells, IFNγ ELISA
Method: (1) A bone marrow-derived dendritic cells (BMDCs) were established from a normal mouse and an FcRγ KO mouse (supplied by Professor Akira Shibuya, Immunology, Life System Medical Sciences, Majors of Medical Sciences, Graduate School of Comprehensive Human Sciences, University of Tsukuba) as described below. Bone marrow was recovered from a mouse femur and tibia, and 1×10^6 cells each were cultured in a 24-well plate using 2 ml/well of a complete RPMI containing 20 ng/ml recombinant mouse GM-CSF (R&D). Half of the medium was exchanged for a fresh medium on day 3 of cultivation, and the cells obtained on day 5 of cultivation were used as the BMDC. (2) BMDCs at Day 5 induced in a GM-CSF-dependent manner was stained with biotin-6H8 (2.5 μg/ml) and streptavidin-APC (0.2 μg/ml), and its fluorescence was determined using FACS Canto (BD).
(1) A pellet of 1×10^6 BMDC cells at Day 5 induced in a GM-CSF-dependent manner were prepared in a 15-ml tube. After adding 400 μl of an antigen (6H8-OVA, OVA, or OVA257-264) thereto, the tube was incubated with 5% CO2 at 37° C. for 3 hours. The cells were fixed in 0.5% para-formaldehyde, after which the cells were washed with 0.1 M glycine and then with RPMI; thereafter, the density was adjusted to 1×10^5 cells/ml. (2) Concurrently, OT-I CD8^+ T cells were purified and the density was adjusted to 1×10^5 cells/ml. […]

| Molecule | recognition of cell surface HSP90 on antigen-presenting cells (FACS) (cell surface HSP90) | cross-presentation potential of FcRγ KO mouse-derived dendritic cells compared with normal mouse-derived dendritic cells (OT-I CD8+ T cells) |
| --- | --- | --- |
| B1 | recognized cell surface HSP90 on cells other than human PBMC-derived immature DC | – |
| B2 | – | significantly decreased |
